The source of these data is publication PMC8309162, “Identification and Functional Characterization of Genes Encoding Phenylacetaldehyde Reductases That Catalyze the Last Step in the Biosynthesis of Hydroxytyrosol in Olive” (Plants, 2021).

In this data set the test system is T1, O=CCc1ccc(O)c(O)c1.
T1 construct: tag cleavage not mentioned
The data set is described as follows: HPLC quantification of hydroxytyrosol formed. In kind it is biochemical, Olea europaea. The settings on record: 0.25-8 mM substrate, Michaelis-Menten, standard assay 5 mM NADPH, 50 mM Tris-HCl pH 8.0, 30 °C (pH of the kinetic run not stated; optimum pH 6.5).

Chain of OePAR1.2 (Olea europaea) (chain, as listed by the source): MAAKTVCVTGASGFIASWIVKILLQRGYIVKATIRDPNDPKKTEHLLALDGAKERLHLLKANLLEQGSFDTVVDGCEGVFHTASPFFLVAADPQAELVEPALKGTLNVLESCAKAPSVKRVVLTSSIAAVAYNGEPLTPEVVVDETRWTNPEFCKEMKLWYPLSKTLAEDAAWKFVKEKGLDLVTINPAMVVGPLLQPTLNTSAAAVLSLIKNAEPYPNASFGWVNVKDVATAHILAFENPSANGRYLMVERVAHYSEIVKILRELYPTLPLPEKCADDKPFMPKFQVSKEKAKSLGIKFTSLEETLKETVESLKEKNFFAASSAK
Chain of OePAR1.1 (Olea europaea) (chain, as listed by the source): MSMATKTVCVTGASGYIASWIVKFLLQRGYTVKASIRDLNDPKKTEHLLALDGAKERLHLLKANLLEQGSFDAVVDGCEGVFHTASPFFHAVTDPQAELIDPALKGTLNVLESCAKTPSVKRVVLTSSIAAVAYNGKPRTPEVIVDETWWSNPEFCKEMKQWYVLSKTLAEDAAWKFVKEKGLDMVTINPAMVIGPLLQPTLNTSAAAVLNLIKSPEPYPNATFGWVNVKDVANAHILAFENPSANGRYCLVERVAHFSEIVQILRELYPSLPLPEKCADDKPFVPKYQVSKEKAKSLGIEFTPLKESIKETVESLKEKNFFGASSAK

OePAR1.2 (Olea europaea): the Km stood at 800 µM.

Turning to OePAR1.1 (Olea europaea), the Km was 600 µM.
